# Key:
# HLA-A*02:01 [1] = test: IEDB peptide-MHC binding, purified MHC/competitive/fluorescence; ≥ and ≤ were set here for values at or beyond the usual limits of such assays; conditions: source organism: Zaire ebolavirus
# HLA-A*24:02 = test: as above; conditions: source organism: Zaire ebolavirus
# HLA-B*44:03 = test: IEDB peptide-MHC binding, purified MHC/competitive/radioactivity; filed as Kd, often an IC50 or EC50 that approximates it; ≥ and ≤ were set here for values at or beyond the usual limits of such assays
# HLA-B*44:02 = test: as above
# HLA-B*40:01 [2] = test: as above
# HLA-B*35:01 = test: as above
# HLA-B*53:01 = test: as above
# HLA-B*51:01 [3] = test: as above
# HLA-B*07:02 [4] = test: as above
# HLA-B*15:03 = test: as above
# HLA-A*24:03 = test: IEDB peptide-MHC binding, purified MHC/direct/fluorescence; filed as Kd, often an IC50 or EC50 that approximates it; ≥ and ≤ were set here for values at or beyond the usual limits of such assays
# HLA-B*08:01 [5] = test: IEDB peptide-MHC binding, purified MHC/competitive/radioactivity; filed as Kd, often an IC50 or EC50 that approximates it; ≥ and ≤ were set here for values at or beyond the usual limits of such assays
# HLA-A*02:01 [6] = test: IEDB peptide-MHC binding, purified MHC/competitive/fluorescence; filed as Kd, often an IC50 or EC50 that approximates it; ≥ and ≤ were set here for values at or beyond the usual limits of such assays; conditions: source organism: Salmonella enterica subsp. enterica serovar Typhi
# HLA-A*26:01 [7] = test: as above; conditions: source organism: Salmonella enterica subsp. enterica serovar Typhi
# HLA-B*15:01 [8] = test: IEDB peptide-MHC binding, purified MHC/competitive/radioactivity; filed as Kd, often an IC50 or EC50 that approximates it; ≥ and ≤ were set here for values at or beyond the usual limits of such assays
# HLA-A*02:03 = test: as above; conditions: source organism: Dengue virus 2 Jamaica/1409/1983
# HLA-A*23:01 = test: as above; conditions: source organism: Dengue virus 1 Brazil/97-11/1997
# HLA-A*32:01 = test: as above
# HLA-B*15:01 [9] = test: IEDB peptide-MHC binding, purified MHC/competitive/fluorescence; filed as Kd, often an IC50 or EC50 that approximates it; ≥ and ≤ were set here for values at or beyond the usual limits of such assays
# HLA-B*51:01 [10] = test: as above
# HLA-B*40:01 [11] = test: IEDB peptide-MHC binding, purified MHC/direct/fluorescence; filed as Kd, often an IC50 or EC50 that approximates it; ≥ and ≤ were set here for values at or beyond the usual limits of such assays; conditions: source organism: Yersinia pestis
# HLA-A*02:01 [12] = test: as above; conditions: source organism: Yersinia pestis
# HLA-A*01:01 [13] = test: as above; conditions: source organism: Yersinia pestis
# HLA-A*03:01 = test: as above; conditions: source organism: Yersinia pestis
# HLA-A*69:01 = test: as above; conditions: source organism: Yersinia pestis
# HLA-A*26:01 [14] = test: as above; conditions: source organism: Yersinia pestis
# HLA-B*27:05 = test: as above; conditions: source organism: Yersinia pestis
# HLA-B*08:01 [15] = test: as above; conditions: source organism: Yersinia pestis
# HLA-B*07:02 [16] = test: as above; conditions: source organism: Yersinia pestis
# HLA-B*15:01 [17] = test: as above; conditions: source organism: Yersinia pestis
# HLA-B*58:01 = test: as above; conditions: source organism: Yersinia pestis
# HLA-A*31:01 = test: as above; conditions: source organism: Yersinia pestis
# HLA-A*11:01 = test: as above; conditions: source organism: Yersinia pestis
# HLA-A*01:01 [18] = test: IEDB peptide-MHC binding, purified MHC/competitive/radioactivity; filed as Kd, often an IC50 or EC50 that approximates it; ≥ and ≤ were set here for values at or beyond the usual limits of such assays
# HLA-A*30:02 = test: as above; conditions: source organism: Dengue virus 4 Philippines/H241/1956
# [19] = source organism: Dengue virus 4 Dominica/814669/1981
# [20] = source organism: Dengue virus 2 Jamaica/1409/1983
# [21] = source organism: Dengue virus 1 Brazil/97-11/1997
# [22] = source organism: Vaccinia virus WR
# [23] = source organism: Dengue virus 4 Philippines/H241/1956
# [24] = source organism: Yersinia pestis
# [25] = source organism: Vaccinia virus Copenhagen
# [26] = source organism: Dengue virus 3 Martinique/1243/1999
# [27] = source organism: Dengue virus 3 Singapore/8120/1995
sequence,measurement,setting,value
AENTNTSKS,IC50,HLA-A*02:01 [1],≥ 187 µM
same,IC50,HLA-A*24:02,≥ 534 µM
AERIGEPDY,Kd,HLA-B*44:03; [19],0.797 µM
same,Kd,HLA-B*44:02; [19],0.203 µM
AETQHGTIV,Kd,HLA-B*40:01 [2]; [20],0.0151 µM
same,Kd,HLA-B*44:03; [20],0.225 µM
DPASIAARGY,Kd,HLA-B*35:01; [20],5.62 µM
EPGQLKLNW,Kd,HLA-B*53:01; [20],0.0331 µM
EPHWIAASI,Kd,HLA-B*51:01 [3]; [21],0.172 µM
same,Kd,HLA-B*07:02 [4]; [21],0.267 µM
same,Kd,HLA-B*53:01; [21],0.333 µM
FARDNQISF,Kd,HLA-B*15:03; [22],0.000195 µM
FFPMVTDAW,Kd,HLA-A*24:03; source organism: Vibrio parahaemolyticus,≤ 0.001 µM
FLFLNINHY,Kd,HLA-B*15:03; [22],0.00646 µM
FLVIAINAM,Kd,HLA-B*15:03; [22],0.44 µM
FPTSRTTWSI,Kd,HLA-B*51:01 [3]; [23],0.184 µM
same,Kd,HLA-B*35:01; [23],0.327 µM
same,Kd,HLA-B*07:02 [4]; [23],0.0555 µM
same,Kd,HLA-B*53:01; [23],0.0164 µM
GPLKLFMAL,Kd,HLA-B*51:01 [3]; [20],≥ 77.4 µM
same,Kd,HLA-B*08:01 [5]; [20],0.0193 µM
same,Kd,HLA-B*07:02 [4]; [20],0.00235 µM
same,Kd,HLA-B*53:01; [20],1.01 µM
GPLRMVLAF,Kd,HLA-B*35:01; [23],1.23 µM
same,Kd,HLA-B*07:02 [4]; [23],0.00558 µM
same,Kd,HLA-B*53:01; [23],0.122 µM
HPGFTVIALF,Kd,HLA-B*35:01; [21],0.101 µM
same,Kd,HLA-B*53:01; [21],0.0879 µM
HVAAFSSLI,Kd,HLA-A*02:01 [6],0.0613 µM
same,Kd,HLA-A*26:01 [7],0.0575 µM
IETLMLLALI,Kd,HLA-B*40:01 [2]; [21],0.206 µM
same,Kd,HLA-B*44:03; [21],1.05 µM
IFVIDNVHTW,Kd,HLA-B*53:01; [23],0.5 µM
IKYMIGNFM,Kd,HLA-B*15:03; [22],0.00215 µM
ILAAVSVSPL,Kd,HLA-B*15:01 [8]; [20],0.0289 µM
same,Kd,HLA-A*02:03,0.013 µM
IMSLFSTSA,Kd,HLA-B*15:03; [22],0.00767 µM
IPMTGPLVA,Kd,HLA-B*07:02 [4]; [20],0.0507 µM
ISKNAFSCM,Kd,HLA-B*15:01 [8]; [22],0.0781 µM
IVIGVGDSAL,Kd,HLA-B*15:01 [8]; [23],0.0278 µM
KKNNRVLCF,Kd,HLA-B*15:03; [22],0.00159 µM
KLVMAFIAF,Kd,HLA-A*23:01,4.82 µM
same,Kd,HLA-A*32:01; [21],1.18 µM
same,Kd,HLA-B*15:01 [8]; [21],0.00139 µM
LENDEDCAHW,Kd,HLA-B*44:03; [20],0.103 µM
same,Kd,HLA-B*44:02; [20],0.103 µM
LEVNNPTPF,Kd,HLA-B*15:01 [9]; [24],0.098 µM
LLVQRVTSV,Kd,HLA-B*15:03; [25],0.285 µM
LLYMFPNLF,Kd,HLA-B*15:03; [22],0.000109 µM
same,Kd,HLA-A*32:01; [22],0.0897 µM
LMLVTPSMAM,Kd,HLA-B*15:01 [8]; [21],0.00708 µM
LPDYGELTL,Kd,HLA-B*51:01 [3]; [23],1.23 µM
same,Kd,HLA-B*35:01; [23],0.1 µM
same,Kd,HLA-B*07:02 [4]; [23],0.0678 µM
same,Kd,HLA-B*53:01; [23],0.0771 µM
LPPEKCDTLL,Kd,HLA-B*35:01; [26],5.98 µM
same,Kd,HLA-B*08:01 [5]; [26],0.707 µM
LPVWLSYKV,Kd,HLA-B*51:01 [3]; [21],0.418 µM
same,Kd,HLA-B*53:01; [21],0.164 µM
LSIPATLFVW,Kd,HLA-B*53:01; source organism: Dengue virus 1 Singapore/S275/1990,0.0928 µM
LSYGPAFIV,Kd,HLA-B*51:01 [10]; source organism: Entamoeba histolytica HM-1:IMSS,≥ 20 µM
LTDEDKQNQ,Kd,HLA-B*40:01 [11],≥ 20 µM
same,Kd,HLA-A*02:01 [12],≥ 20 µM
same,Kd,HLA-A*01:01 [13],≥ 20 µM
same,Kd,HLA-A*03:01,≥ 20 µM
same,Kd,HLA-A*69:01,≥ 20 µM
same,Kd,HLA-A*26:01 [14],≥ 20 µM
same,Kd,HLA-B*27:05,≥ 20 µM
same,Kd,HLA-B*08:01 [15],≥ 20 µM
same,Kd,HLA-B*07:02 [16],≥ 20 µM
same,Kd,HLA-B*15:01 [17],≥ 20 µM
same,Kd,HLA-A*24:03; [24],≥ 20 µM
same,Kd,HLA-B*58:01,≥ 20 µM
same,Kd,HLA-A*31:01,≥ 20 µM
same,Kd,HLA-A*11:01,≥ 20 µM
MEGVFHTMW,Kd,HLA-B*44:03; [23],0.00258 µM
same,Kd,HLA-B*44:02; [23],0.0174 µM
MQYVPAWIV,Kd,HLA-B*51:01 [10]; source organism: Bacillus cereus 95/8201,≥ 20 µM
NATDTWVTY,Kd,HLA-A*01:01 [18]; [21],0.144 µM
same,Kd,HLA-B*35:01; [21],0.0209 µM
NELNYVLWE,Kd,HLA-B*44:03; [23],0.159 µM
PPVNDLKYSW,Kd,HLA-B*53:01; [23],0.0968 µM
QKIWMAPSL,IC50,HLA-A*02:01 [1],14.5 µM
same,IC50,HLA-A*24:02,≥ 92.4 µM
QPFLALGFFL,Kd,HLA-B*51:01 [3]; [26],≥ 69.6 µM
same,Kd,HLA-B*35:01; [26],0.2 µM
same,Kd,HLA-B*07:02 [4]; [26],0.577 µM
QPMELKYSW,Kd,HLA-B*53:01; [26],0.00776 µM
RAKGSRAIWY,Kd,HLA-A*30:02,0.077 µM
same,Kd,HLA-B*15:01 [8]; [23],0.0361 µM
RPMPGTRKVM,Kd,HLA-B*35:01; [27],8.17 µM
same,Kd,HLA-B*07:02 [4]; [27],0.00113 µM
RPTPTGTVM,Kd,HLA-B*35:01; [26],1.43 µM
same,Kd,HLA-B*07:02 [4]; [26],0.00198 µM
RSRWSRKMLM,Kd,HLA-B*07:02 [4]; [21],0.154 µM
RYGWSGAVF,Kd,HLA-A*24:03; source organism: Shigella sonnei Ss046,≤ 0.001 µM
SDTRSVNSF,Kd,HLA-B*15:03; [25],0.0927 µM
SECPNERRAW,Kd,HLA-B*44:03; [23],0.0565 µM
same,Kd,HLA-B*44:02; [23],0.0747 µM
SEFQIYKKS,Kd,HLA-B*44:03; [20],0.825 µM
SIIVLFQRF,Kd,HLA-B*08:01 [5]; [22],8.55 µM
same,Kd,HLA-B*15:01 [8]; [22],0.00109 µM
SKSRRLNLF,Kd,HLA-B*15:03; [22],0.00236 µM
SLIEVKTCLW,Kd,HLA-B*44:03; [23],2.33 µM
SPGKFWNTTI,Kd,HLA-B*07:02 [4]; [21],0.0056 µM
SPGTSGSPII,Kd,HLA-B*07:02 [4]; source organism: Dengue virus 2 16681-PDK53,0.132 µM
SPGYVLGVF,Kd,HLA-B*07:02 [4]; [19],0.00871 µM
TEEIAVQNW,Kd,HLA-B*44:03; [20],0.0368 µM
same,Kd,HLA-B*44:02; [20],0.0154 µM
TEIASLPTYL,Kd,HLA-B*40:01 [2]; [23],0.015 µM
same,Kd,HLA-B*44:03; [23],0.222 µM
same,Kd,HLA-B*44:02; [23],0.0347 µM
TQGYFPDWQNY,Kd,HLA-B*15:01 [9]; source organism: Human immunodeficiency virus 1,0.0846 µM
TTGKLIWKV,IC50,HLA-A*02:01 [1],1.24 µM
same,IC50,HLA-A*24:02,62.7 µM
TVIDLDPIPY,Kd,HLA-A*01:01 [18]; [20],1.54 µM
same,Kd,HLA-B*15:01 [8]; [20],0.00183 µM
WKVLSIMAF,Kd,HLA-B*15:03; [25],0.00929 µM
YVQLESRFT,IC50,HLA-A*02:01 [1],39.3 µM
same,IC50,HLA-A*24:02,≥ 203 µM
